# Laboratory results from paper PMC11898728.
# Biological target: RhoA (human) (UniProt P61586)
# UniProt P61586, sequence (P61586 whole entry): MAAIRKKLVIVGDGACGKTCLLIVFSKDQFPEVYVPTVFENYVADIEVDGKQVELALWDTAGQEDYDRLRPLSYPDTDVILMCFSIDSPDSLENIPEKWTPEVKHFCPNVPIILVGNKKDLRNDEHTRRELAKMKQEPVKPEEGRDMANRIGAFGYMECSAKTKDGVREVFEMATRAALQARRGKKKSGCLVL
substance,measurement,value
"VopX (amino acids 26-252), purified (domain or fragment)","average exchange rate of RhoA in the presence of VopX (in vitro RhoGEF exchange assay with N-MAR-GTP; 1.5 µM GTPase, 0.75 µM N-MAR-GTP, 0.5 µM VopX) (µmol N-MAR-GTP/μmol GTPase/s)",167
